Test results from US20050287132A1, “Biliverdin reductase fragments and variants, and methods of using biliverdin reductase and such fragments and variants” (University of Rochester, priority 1999, published 2005).

Tests used:
biliverdin reductase [1] = biological target: T1, biliverdin reductase (Rattus norvegicus, UniProt P46844); test: Autophosphorylation of biliverdin reductase, in blot method with [γ^32P]-ATP; type: biochemical; settings: PVDF bound, denatured/renatured
T1 sequence (P46844 3-295): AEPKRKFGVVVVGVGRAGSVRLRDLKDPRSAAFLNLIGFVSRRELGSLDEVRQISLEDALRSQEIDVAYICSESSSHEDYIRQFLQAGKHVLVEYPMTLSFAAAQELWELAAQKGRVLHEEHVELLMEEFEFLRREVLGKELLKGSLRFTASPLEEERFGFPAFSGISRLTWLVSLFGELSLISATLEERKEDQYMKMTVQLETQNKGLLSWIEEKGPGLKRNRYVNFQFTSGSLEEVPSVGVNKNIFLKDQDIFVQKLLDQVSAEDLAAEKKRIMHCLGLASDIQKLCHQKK
From the text: The ability of the reductase to phosphorylate itself was examined using the in blot method of Ferrell and Martin (Ferrell et al., Methods Enzymol. 200:430-435 (1991), which is hereby incorporated by reference). Purified wild type or mutant proteins were used.
The ability of the reductase to phosphorylate itself was examined using the in blot method of Ferrell et al., Methods Enzymol. 200:430-435 (1991), which is hereby incorporated by reference. Following electrophoresis on 12.5% SDS-PAGE plus thioglycolate (0.002%), the protein was transferred to PVDF membrane (Millipore). The blot was denatured for I h at room temperature in 7 M guanidine-HCl (pH 8.3) containing 50 mM Tris-base, 50 mM dithiothreitol and 2 mM EDTA and the bound protein was allowed to renature overnight at 4° C. then incubated at room temperature for 4 h in freshly prepared labeling mix containing 10 μCi/ml [γ^32P]-ATP. The membrane first with 30 mM Tris-HCl (pH 7.4) then for 10 min each with 250 ml of the following: with 30 mM Tris-HCl (pH 7.4) twice; with the same buffer containing 0.5% (v/v) NP-40 once; with the Tris buffer twice; with 1 M KOH once; with the Tris buffer, twice . The membrane was blotted, dried, wrapped in plastic wrap, and exposed for autoradiography.

biliverdin reductase [2] = biological target: T1, biliverdin reductase; test: Western blot analysis of phosphorylation of purified rat liver BVR; type: biochemical; settings: individual anti-phosphotyrosine, -serine, -threonine antibodies
Experimental: 2D-IEF was performed essentially as detailed previously (Huang et al., J. Biol. Chem. 264:7844-7849 (1989), which is hereby incorporated by reference). The first dimension separation of 3.5 μg of the reductase was carried out by isoelectric focusing (Righetti et al., J Chromatogr. 98:271-321 (1974), which is hereby incorporated by reference) using ampholytes with a 4-6.5 pH range. Electrofocusing was carried out for 17 h at 400 volts then for an additional hour at 800 volts. After focusing, the second dimension separation was carried out using 12.5% SDS polyacrylamide gel. […] The secondary antibody was goat anti-rabbit horseradish peroxidase (Zymed) at a 1:1000 dilution. Detection was carried out using the ECL reagent kit (NEN) according to the manufacturer's instructions. Phosphorylation molecular weight markers were used (Zymed). Soybean trypsin inhibitor (pI 4.55), β-lactoglobin A (pI 5.13), bovine carbonic anhydrase (pI 5.85), and human carbonic anhydrase B (pI 6.57) were used as IEF standards. Immunoblotting was performed by the method of Towbin et al, Proc. Nat. Acad. Sci. USA 76:4350-4354 (1979), which is hereby incorporated by reference. Primary and secondary antibody treatments and staining for peroxidase with 4-chloro-1 -naphthol were performed as described previously (Huang et al., J. Biol. Chem. 264:7844-7849 (1989), which is hereby incorporated by reference).

histone III-S = test: BVR kinase activity, 32P incorporation into exogenous substrate; type: biochemical
Experimental: (§1) Incubation time was 8 min at 30° C.

HO-1 = test: as above; type: biochemical, rat
Experimental: as §1

HO-2 = test: as above; type: biochemical, rat
Experimental: as §1

PKC = test: Effect of BVR and peptides on PKC activity (MBP substrate, kinetic analysis); type: biochemical
Experimental: FIGS. 11A-C are graphs depicting the role of BVR in increasing protein kinase C activity. FIG. 11A depicts the dose-dependence of PKC activity in the presence of BVR or PKC inhibitor peptide (“PKCI”) in an assay system containing 0.5 μg/ml PKC, 50 μM unlabeled ATP, 5 μCi[^32γP]-ATP and 1 mg/ml MBP and carried out as described infra. FIGS. 11B-C are the kinetic analyses of PKC activity carried out with respect to MBP (FIG. 11B) and with respect to ATP (FIG. 11C) in the presence or absence of 50 μM BVR.
FIGS. 12A-C are graphs illustrating the effect of various rBVR fragments on PKC activity. Protein kinase C was incubated at 30° C. with buffer or with the indicated peptides (50 μM) for 15 min prior to addition to a kinase assay using MBP as substrate. FIG. 12A depicts the relative activity for each sample normalizing to that of the PKC and buffer control value. FIGS. 12B-C are the kinetic analyses of PKC with respect to substrate MBP (FIG. 12B) and ATP (FIG. 12C) in the presence or absence of BVR peptide fragments (50 μM). BVR1 peptide corresponds to SEQ. ID. No. 34 and BVR2 peptide corresponds to SEQ. ID. No. 19.
as §1

[3] = test system: PKC (a mixture containing equal amounts of isozymes α, β and γ); test: Overlay assay for PKC binding by rat BVR; settings: 2 μg rat liver BVR, 500 ng/ml PKC
Experimental: The physical interaction of BVR with PKC was assessed using an overlay assay based on that described by Wolf and Sahyoun (J. Biol. Chem. 261:13327-13331 (1986), which is hereby incorporated by reference) with known modifications (Chapline et al., J. Biol. Chem. 268:6858-6861 (1993), which is hereby incorporated by reference). Purified rat liver BVR (2 μg) was subjected to SDS-PAGE and transferred to nitrocellulose membrane. The membrane was blocked, washed, and then overlaid with a solution containing 500 ng/ml of PKC (a mixture containing equal amounts of isozymes α, β and γ) (Promega) in TBS containing 10 mg/ml BSA, 20 μg/ml phosphatidylserine, 1 mM EGTA, 1.2 mM CaCl2, 10 μg/ml leupeptin and 10 μg/ml aprotinin. After incubation for 1 h at room temperature, the blot was extensively washed with the PBS containing the same supplements as the overlay solution, but lacking the kinase mixture. The protein on the membrane was fixed by incubation in 0.5% formaldehyde in PBS and then reactive aldehyde groups were blocked by incubation in 2% glycine in TBS for 20 min at room temperature. The membrane was then washed 3 times with TBS and was cut in two, one half was subjected to Western blot analysis using a 1:1000 dilution of anti-PKC for 2 h at room temperature as the primary antibody, while the second half was probed with rabbit anti-rat BVR as detailed above for Western blotting. […]

[4] = Reductase activity of BVR purified from rat liver; type: biochemical; settings: purified to homogeneity
Experimental: BVR was purified from rat liver to homogeneity (3,000 nmol bilirubin/min/mg protein) as described before (O'Carra et al., J. Biochem. 125:110P (1971), which is hereby incorporated by reference), with modifications (Huang et al., J. Biol. Chem. 264:7844-7849 (1989), which is hereby incorporated by reference). Activity was determined at pH 8.7 with NADPH in Tris-HCl with […] in potassium phosphate buffer. The substrate concentration was 5 μM. The rate of activity was measured by the increase in 450 nm absorbance at 25° C. The purified reductase, which was judged to be homogenous by SDS-PAGE, stained with Coomasie Brilliant Blue (Sigma), was used for preparation of polyclonal antibody in New Zealand rabbits (O'Carra et al., J. Biochem. 125:110P (1971), which is hereby incorporated by reference). Protein concentration was determined by Bradford's method (Bradford, Anal. Biochem. 72:248-254 (1976), which is hereby incorporated by reference).

MBP = settings: ^32P incorporation
Experimental: Kinase reactions were carried out based on the assay as described by Roskoski (Roskoski, Methods Enzymol. 99:3-6 (1983), which is hereby incorporated by reference) in a 50 μl volume in a reaction buffer consisting of 20 mM Tris HCl (pH 7.4) containing 10 mM MgCl2, 50 mM unlabeled ATP, 5 μCi [γ^32 P]-ATP and 1 mg/ml substrate. Substrates used were prepared as 10 mg/ml stock in 0.2 M Tris-HCl (pH 7.4) and stored at -20° C. The substrates utilized were MBP and histone III-S (Sigma) and E. coli expressed purified preparations of full length rat HO-1 and HO-2 (McCoubrey et al., J. Biol. Chem. 272:12568-12574 (1997), which is hereby incorporated by reference). The substrate/reaction buffer was incubated at 30° C. for 4 min prior to the addition of 5 μl of enzyme source (2 mg/ml BVR, 0.5 μg/ml PKC) or enzyme vehicle (GST-PBS containing 10% glycerol). Samples were mixed by aspiration and were then incubated for 8-15 min at 30° C. An aliquot (40 μl) from the reaction mixture was spotted onto a P81 (Whatman) filter, which was immediately immersed in 75 mM phosphoric acid for ≧5 min. Filters were washed 5× for 5 min each in 75 mM phosphoric acid and then 1× for 5 min with acetone before being air dried and counted by liquid scintillation counting in 10 ml ScintiVerse BD (Fisher). […] Activity was determined as ^32P counts incorporated into the acceptor protein per minute. […]

[5] = in the presence of 50 μM BVR or peptide

B1: BVR: rat biliverdin reductase, SEQ. ID. No. 4, purified from rat liver (Example 3) (protein, listed as Rattus norvegicus)
chain: MDAEPKRKFGVVVVGVGRAGSVRLRDLKDPRSAAFLNLIGFVSRRELGSLDEVRQISLEDALRSQEIDVAYICSESSSHEDYIRQFLQAGKHVLVEYPMTLSFAAAQELWELAAQKGRVLHEEHVELLMEEFEFLRREVLGKELLKGSLRFTASPLEEERFGFPAFSGISRLTWLVSLFGELSLISATLEERKEDQYMKMTVQLETQNKGLLSWIEEKGPGLKRNRYVNFQFTSGSLEEVPSVGVNKNIFLKDQDIFVQKLLDQVSAEDLAAEKKRIMHCLGLASDIQKLCHQKK
- autophosphorylation (biliverdin reductase [1]): able to phosphorylate itself
- phosphoamino acids present (biliverdin reductase [2]): esterified on tyrosine (panel b), serine (panel c), and threonine (panel d) residues
- phosphate transferred by BVR to histone III-S (histone III-S): ~1,000 cpm/min
- HO-1 as substrate for BVR phosphotransferase activity (HO-1): not substrates
- HO-2 as substrate for BVR phosphotransferase activity (HO-2): not substrates
- effect on Km of the PKC reaction with respect to ATP (PKC; BVR 50 μM): negligible
- dose dependence of PKC activity (^32P into MBP) (PKC; PKC preincubated 15 min at 30° C., MBP substrate): increased in a dose-dependent manner
- Vmax of the PKC reaction with respect to ATP (PKC; [5]): 2.9 pmol/min
- Vmax of the PKC reaction with respect to MBP (PKC; [5]): 4.9 pmol/min
- substrate Km of the PKC reaction (PKC; upon addition of BVR (50 μM), MBP): 0.16 mg/mL
- PKC binding (overlay, anti-PKC Western) [3]: PKC-interactive protein
- specific activity of purified rat liver BVR [4]: 3,000 nmol bilirubin/min/mg protein
- phosphate transferred by BVR to MBP (MBP): ~4,000 cpm/min
